Results published in IntAct's records for PubMed 31262713.

B1: Protein Niban 2 (Homo sapiens), Q96TA1 (parent)
chain: MGDVLSTHLDDARRQHIAEKTGKILTEFLQFYEDQYGVALFNSMRHEIEGTGLPQAQLLWRKVPLDERIVFSGNLFQHQEDSKKWRNRFSLVPHNYGLVLYENKAAYERQVPPRAVINSAGYKILTSVDQYLELIGNSLPGTTAKSGSAPILKCPTQFPLILWHPYARHYYFCMMTEAEQDKWQAVLQDCIRHCNNGIPEDSKVEGPAFTDAIRMYRQSKELYGTWEMLCGNEVQILSNLVMEELGPELKAELGPRLKGKPQERQRQWIQISDAVYHMVYEQAKARFEEVLSKVQQVQPAMQAVIRTDMDQIITSKEHLASKIRAFILPKAEVCVRNHVQPYIPSILEALMVPTSQGFTEVRDVFFKEVTDMNLNVINEGGIDKLGEYMEKLSRLAYHPLKMQSCYEKMESLRLDGLQQRFDVSSTSVFKQRAQIHMREQMDNAVYTFETLLHQELGKGPTKEELCKSIQRVLERVLKKYDYDSSSVRKRFFREALLQISIPFLLKKLAPTCKSELPRFQELIFEDFARFILVENTYEEVVLQTVMKDILQAVKEAAVQRKHNLYRDSMVMHNSDPNLHLLAEGAPIDWGEEYSNSGGGGSPSPSTPESATLSEKRRRAKQVVSVVQDEEVGLPFEASPESPPPASPDGVTEIRGLLAQGLRPESPPPAGPLLNGAPAGESPQPKAAPEASSPPASPLQHLLPGKAVDLGPPKPSDQETGEQVSSPSSHPALHTTTEDSAGVQTEF

Assays:
[1] = variants of: B1; settings: with keap1_human KEAP1, Q14145
[2] = variants of: B1; settings: with keap1_human KEAP1, Q14145; remark: listed apart in the source

keap1_human KEAP1, Q14145, sequence (Q14145 whole entry): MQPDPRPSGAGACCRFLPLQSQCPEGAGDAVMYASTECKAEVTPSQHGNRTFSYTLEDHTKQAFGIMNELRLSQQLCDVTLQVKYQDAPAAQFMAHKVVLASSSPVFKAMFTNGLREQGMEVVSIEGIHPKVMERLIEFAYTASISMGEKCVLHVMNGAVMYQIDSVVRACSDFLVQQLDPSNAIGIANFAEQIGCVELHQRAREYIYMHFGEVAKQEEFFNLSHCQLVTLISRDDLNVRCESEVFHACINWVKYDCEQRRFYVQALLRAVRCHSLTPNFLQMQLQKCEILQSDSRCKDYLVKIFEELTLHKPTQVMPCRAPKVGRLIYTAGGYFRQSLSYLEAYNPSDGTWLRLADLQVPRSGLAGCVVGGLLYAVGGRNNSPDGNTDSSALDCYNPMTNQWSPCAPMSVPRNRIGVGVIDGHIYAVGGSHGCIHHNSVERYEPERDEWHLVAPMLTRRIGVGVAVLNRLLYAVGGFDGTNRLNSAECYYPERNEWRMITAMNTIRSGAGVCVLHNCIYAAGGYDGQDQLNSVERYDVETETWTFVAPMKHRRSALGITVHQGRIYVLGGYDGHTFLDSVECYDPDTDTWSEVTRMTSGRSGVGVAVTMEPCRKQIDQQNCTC

Variant | effect of a mutation on the interaction [1] | effect of a mutation on the interaction [2]
E718A;T719A | disrupting interaction strength | –
G710A;E718A;T719A | disrupting interaction strength | disrupting interaction strength
G710A | with no effect | disrupting interaction strength
